Experimental data from patent publication US7371828.

T1: MBP from bovine brain (Sigma), P02687
T1 chain: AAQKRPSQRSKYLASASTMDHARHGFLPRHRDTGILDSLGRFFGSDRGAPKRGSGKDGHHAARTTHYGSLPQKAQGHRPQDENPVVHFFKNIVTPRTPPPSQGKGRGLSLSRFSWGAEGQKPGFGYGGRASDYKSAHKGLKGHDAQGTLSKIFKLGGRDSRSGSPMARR


Target: T1, MBP from bovine brain (Sigma), P02687

Row | Protein | MBP kinase activity (32P incorporation in MBP-containing polyacrylamide gel) | MBP phosphorylation assay
1 | human ERK5 (hERK5) wild type protein (protein) MSSPPPGGSGFYRQEVTKTAWEVRAVYRDLQPVGSGAYGAVCSAVDGRTGAKVAIKKLYRPFGSELFAKLAYRELRLLKHMRHENVIGLLDVFTPDETLDDFTDFYLVMPFMGTDLGKLMKHEKLGEDRIQFLVYQMMKGLRYIHAAGIIHRDLKPGNLAVNEDCELKILDFGLARQADSEMTGYVVTRWYRAPEVILNWIAYTQTVDIWSVGCIMAEMITGKTLFKGSDHLDQLKEIMKVTGTPPAEFVQRLQSDEAKNYMKGLPELEKKDFASILTNASPLAVNLLEKMLVLDADIRLTAGEFLSHPYFESLHDTEDEPQVQKYDDSFDYFDRTLDEWKPCYLQRGAQLQASPAAGGQGLQGDASVKISGLRGGSEDHLHLPPERGLSLPP | A predominant signal is observed at 56 kD; A weaker signal at the position of the 44/46 kD bands | –
2 | hERK5 Y185F mutant (protein) MSSPPPGGSGFYRQEVTKTAWEVRAVYRDLQPVGSGAYGAVCSAVDGRTGAKVAIKKLYRPFGSELFAKLAYRELRLLKHMRHENVIGLLDVFTPDETLDDFTDFYLVMPFMGTDLGKLMKHEKLGEDRIQFLVYQMMKGLRYIHAAGIIHRDLKPGNLAVNEDCELKILDFGLARQADSEMTGFVVTRWYRAPEVILNWIAYTQTVDIWSVGCIMAEMITGKTLFKGSDHLDQLKEIMKVTGTPPAEFVQRLQSDEAKNYMKGLPELEKKDFASILTNASPLAVNLLEKMLVLDADIRLTAGEFLSHPYFESLHDTEDEPQVQKYDDSFDYFDRTLDEWKPCYLQRGAQLQASPAAGGQGLQGDASVKISGLRGGSEDHLHLPPERGLSLPP | the lack of ^32P incorporation in lanes 5 and 6 | this mutant is indeed kinase negative
